Experimental data as given in paper PMC12339945.

Target: HIV-1 Tat (E. coli, purified) (HIV-1, UniProt P12506)
Assay: NMR titration (1D 1H imino)
Settings: protein: recombinant; tags: N-terminal His6, stated as cleaved after purification

GGGAGCUUGAUCCCGGAAACGGUCGAUCGCUCCC (structured_RNA) [HIV Tat RNA aptamer (unlabeled)]: binds.
